Experimental data reported in patent publication US20190382503A1 (published 2019).

Tests used:
cynomolgus 5T4 on cells = biological target: T1, cynomolgus 5T4 on cells (cynomolgus macaque, UniProt Q4R8Y9 35-420); assay: FACS binding CHO-K1/cynomolgus 5T4 cells
T1 chain: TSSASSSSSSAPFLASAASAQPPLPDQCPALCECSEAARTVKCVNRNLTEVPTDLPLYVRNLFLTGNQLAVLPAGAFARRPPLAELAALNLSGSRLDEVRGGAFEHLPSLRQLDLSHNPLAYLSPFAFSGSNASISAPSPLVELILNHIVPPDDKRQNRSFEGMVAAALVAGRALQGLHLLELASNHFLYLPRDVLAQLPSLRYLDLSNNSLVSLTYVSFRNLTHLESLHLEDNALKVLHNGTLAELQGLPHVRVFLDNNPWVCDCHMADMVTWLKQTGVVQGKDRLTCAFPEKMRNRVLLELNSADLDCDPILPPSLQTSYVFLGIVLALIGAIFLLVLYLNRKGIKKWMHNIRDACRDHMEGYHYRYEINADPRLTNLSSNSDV

human 5T4 on cells = biological target: T2, human 5T4 on cells (UniProt Q13641 32-420); assay: FACS binding CT26 human 5T4 cells; CT26 cells
T2 chain: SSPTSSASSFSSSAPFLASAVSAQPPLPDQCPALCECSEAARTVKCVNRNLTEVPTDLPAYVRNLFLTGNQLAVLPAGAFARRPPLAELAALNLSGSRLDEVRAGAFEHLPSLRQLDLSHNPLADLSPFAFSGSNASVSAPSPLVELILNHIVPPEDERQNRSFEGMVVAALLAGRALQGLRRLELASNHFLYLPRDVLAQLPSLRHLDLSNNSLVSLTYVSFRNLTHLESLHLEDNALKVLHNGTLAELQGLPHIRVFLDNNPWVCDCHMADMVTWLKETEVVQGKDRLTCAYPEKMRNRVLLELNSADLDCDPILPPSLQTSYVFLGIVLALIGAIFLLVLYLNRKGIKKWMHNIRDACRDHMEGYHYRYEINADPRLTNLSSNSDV

human CD137 on cells = human CD137 on cells (UniProt Q07011 24-255); assay: FACS binding CHO-K1/human CD137 cells
human CD137 on cells, sequence (Q07011 24-255): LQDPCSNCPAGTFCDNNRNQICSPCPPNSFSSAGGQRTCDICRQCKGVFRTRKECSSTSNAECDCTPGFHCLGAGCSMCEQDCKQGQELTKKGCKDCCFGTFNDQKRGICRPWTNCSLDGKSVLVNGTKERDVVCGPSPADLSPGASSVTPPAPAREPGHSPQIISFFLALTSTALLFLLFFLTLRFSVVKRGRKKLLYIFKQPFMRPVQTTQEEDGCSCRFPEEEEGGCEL

EC50 (cynomolgus 5T4 on cells): 6.5 nM | EC50 (human 5T4 on cells): 1.5 nM | EC50 (human CD137 on cells): 0.39 nM
B1: ALG.APV-004 (bispecific antibody)
chain 1: EVQLLESGGGLVQPGGSLRLSCAASGFTFSYGSMYWVRQAPGKGLEWVSSISSGSGSTYYADSVKGRFTISRDNSKNTLYLQMNSLRAEDTAVYYCARSSYYGSYYSIDYWGQGTLVTVSSEVQLLESGGGLVQPGGSLRLSCAASGFTFSSYAMSWVRQAPGKCLEWVSAISGSGGSTYYADSVKGRFTISRDNSKNTLYLQMNSLRAEDTAVYYCARYYGGYYSAWMDYWGQGTLVTVSSDIQMTQSPSSLSASVGDRVTITCRASQSISSYLNWYQQKPGKAPKLLIYAASSLQSGVPSRFSGSGSGTDFTLTISSLQPEDFATYYCQQTYGYLHTFGCGTRLEIK
chain 2: DIQMTQSPSSLSASVGDRVTITCRASQSISSYLNWYQQKPGKAPKLLIYAASSLQSGVPSRFSGSGSGTDFTLTISSLQPEDFATYYCQQYYDNLPTFGQGTKLEIK
